Consider one molecule from patent US20220017608A1.

What all share (assay): Biacore 3000, 25 °C, alanine scan: N-biotinylated peptide on SA chip, G1 Fab titrated; fold loss versus wild-type 25-37 fragment
For orientation: In SPR one partner is held on a chip, and binding of the other changes the refractive index at the surface.

One assay addresses T1, F37A.
T1 sequence (peptide, N-terminal biotin): NNFVPTNVGSKAA

A further assay has as its target T2, G33A.
T2 sequence (peptide, N-terminal biotin): NNFVPTNVASKAF

Another assay has as its target T3, S34A.
T3 sequence (peptide, N-terminal biotin): NNFVPTNVGAKAF

B1: Fab fragments of antibody G1 (Fab, V domains shown)
VH: EVQLVESGGGLVQPGGSLRLSCAASGFTFSNYWISWVRQAPGKGLEWVAEIRSESDASATHYAEAVKGRFTISRDNAKNSLYLQMNSLRAEDTAVYYCLAYFDYGLAIQNYWGQGTLVTVSS
VL: EIVLTQSPATLSLSPGERATLSCKASKRVTTYVSWYQQKPGQAPRLLIYGASNRYLGIPARFSGSGSGTDFTLTISSLEPEDFAVYYCSQSYNYPYTFGQGTKLEIK
Regarding B1, the Fold loss in affinity stood at 339 fold with F37A, 504 fold with G33A and 10.9 fold with S34A.
